From US20140227293A1 (TRUSTEES OF BOSTON UNIVERSITY, published 2014)

Target: the molecule itself
Assay: BS3 chemical cross-linking of PAE cells expressing IGPR-1 (confluent versus sparse), anti-IGPR-1 Western blot
Procedure: To determine whether IGPR-1 is involved in cell-cell interaction inventors subjected PAE cells expressing IGPR-1 and ΔN-IGPR-1 to aggregation/cell-cell adhesion assay. […] To further establish role of IGPR-1 in cell-cell interaction, the inventors investigated dimerization of IGPR-1 particularly its possible trans-dimerization. Inventors reasoned that if cells are plated in confluent condition, IGPR-1 could form trans-dimerization and possibly cis-dimerization (see FIG. 9C). However, plating the cells in a sparse condition, IGPR-1 will be less able to form trans-dimerization.

B1: immunoglobulin containing and proline rich receptor-1 (IGPR-1), human, full length, ectopically expressed in PAE cells (receptor)
chain: LSVQQGPNLLQVRQGSQATLVCQVDQATAWERLRVKWTKDGAILCQPYITNGSLSLGVCGPQGRLSWQAPSHLTLQLDPVSLNHSGAYVCWAAVEIPELEEAEGNITRLFVDPDDPTQNRNRIASFPGFLFVLLGVGSMGVAAIVWGAWFWGRRSCQQRDSGNSPGNAFYSNVLYRPRGPPKKSEDCSGEGKDQRGQSIYSTSFPQPAPRQPHLASRPCPSPRPCPSPRPGHPVSMVRVSPRPSPTQQPRPKGFPKVGEE
modifications: N-glycosylated (apparent 55 kDa, 31 kDa after PNGase F)
notes: Expressed from the retroviral vector pMSCV.puro in PAE (porcine aortic endothelial) cells; Used on intact cells (aggregation, adhesion, BS3 cross-linking) and as whole cell lysate (GST pull-down, co-immunoprecipitation, Western blot); also called IGRP-1; TMIGD2
binding result: binds
